# According to article PMC7041945, “Misfolded proteins bind and activate death receptor 5 to trigger apoptosis during unresolved endoplasmic reticulum stress” (eLife, 2020):
# B1: MPZ-GFP: myelin protein zero with a C-terminal monomeric EGFP, expressed from plasmid (protein)
# chain: IVVYTDREVHGAVGSRVTLHCSFWSSEWVSDDISFTWRYQPEGGRDAISIFHYAKGQPYIDEVGTFKERIQWVGDPRWKDGSIVIHNLDYSDNGTFTCDVKNPPDIVGKTSQVTLYVFEKVPTRYGVVLGAVIGGVLGVVLLLLLLFYVVRYCWLRRQAALQRRLSAMEKGKLHKPGKDASKRGRQTPVLYAMLDHSRSTKAVSEKKAKGLGESRKDKK
# modifications: left off: monomeric EGFP, C-terminal, kept
# notes: myelin protein zero with a C-terminal monomeric EGFP, expressed from plasmid
# Tested on: CHOP, BiP, and DR5 mRNA in HCT116 cells
# Experiment: qPCR of UPR target transcripts (CHOP, BiP, DR5)
# Assay type: cell-based, Homo sapiens
# Conditions: HCT116, transfected 24 hr
# Description: Cells were grown in 6-well plates and harvested with 0.5 ml of TRIzol reagent (Life Technologies) per manufacturer’s protocol to extract RNA. For cDNA synthesis, 500 ng of total RNA was reverse transcribed with 2 μl of the SuperScript VILO master mix (Life Technologies # 11755050) in a total reaction volume of 10 μl following the manufacturer’s protocol for reaction temperature and duration. The reverse transcription product was diluted to 200 μl with 10 mM Tris-HCl pH 8.2 and used at 1:100 dilution for subsequent RT-PCR reactions.
# PCR samples were prepared as described by manufacturer’s protocols from iQ SYBR Green Supermix (BioRad #17088800).
# For each experiment, qRT-PCR reactions were set up in triplicate and run using a CFX96 Real Time System (Bio-Rad). Quantitation cycles were determined with CFX Manager 3.0 software (Bio-Rad) and then normalized to GAPDH as an internal control.
molecule,measurement,value
B1,UPR target gene transcription,"dose-dependent upregulation of the UPR transcriptional target genes CHOP, BiP, and DR5"
